{"source": "the DeepSol protein solubility set"}
{"experiment": "soluble on expression in E. coli; label from the status in PepcDB or PDB records"}
{"sequence": "MSLDVEDTVKKLNLKFRNIEGERLILAITCDENKNVLMVAFMNEEALKKTLETGYMHYYSTSRKKLWRKGEESGNVQKLIKFYRDCDGDALLFIVEQKGVACHEGYYSCFHYKIEDGELKITGEYYSKREGHHHHHH", "soluble on expression in E. coli": "soluble"}
{"sequence": "MSLEALMNVQFFDHAHHKLKIRGLQSPVDVLTFEGREQLSTPFRYDIQFTSSDKAIAPESVLMQDGAFSLTAPPVQGMPVQTALRTLHGVITGFKHLSSSQDEARYEVRLEPRMALLTRSRQNAIYQNQTVPQIVEKILRERHQMRGQDFVFNLKSEYPAREQVMQYGEDDLTFVSRLLSEVGIWFRFATDARLKIEVIEFYDDQSGYERGLTLPLRHPSGLFDGETEAVWGLNTAYSVVEKSVSTRDYNYREATAEMTTGQHDATGGDNTTYGEAYHYADNFLQQGDKEAAESGAFYARIRHERYLNEQAILKGQSTSSLLMPGLEIKVQGDDAPAVFRKGVLITGVTTSAARDRSYELTFTAIPYSERYGYRPALIPRPVMAGTLPARVTSTVKNDIYAHIDKDGRYRVNLDFDRDTWKPGYESLWVRQSRPYAGDTYGLHLPLLAGTEVSIAFEEGNPDRPYIAGVKHDSAHTDHVTIQNYKRNVLRTPANNKIRLDDERGKEHIKVSTEYGGKSQLNLGHLVDAGKEQRGEGFELRTDLWGAVRAKKGIFISADAQDKAQGQVLEMQPALARLSAALVTMESLAASAQQAQALAADVSRQQTLLQQKIEQLQQEVLLGSAPKGVALVSGEDMQLSASDNLTLTAGKQLDIGVQKDFTLAAGKQLSLYSRAGAKLFSSHNDIDIQAQGGNLTTWSTQDTYISSGKKLVVTAQDELTLICGGGYIKIKSGNVEIGGPGKLLVKNAGIKKAGSGSMQGVMKSFEPESFDENFIISNPASGKPIANQKYEIHMPDGSVIAGITDAMGYSSLVASKASDDLKIILKKEGHHHHHH", "soluble on expression in E. coli": "soluble"}
{"sequence": "MSLEASVEGLDGPAATNVVNFLEPLDTRNISEARLDSDIRERTQRALRAFGYYSPQIETSYPDGMFAGDVVIAIDPGPRTHITQLDLGVDGAAGDDPAFRKALASIPLEEGDPLRHDRYDSAKTRLSTLALERGYFDAGFAQQRMEVRPWEASARLFLRMRSGPRYRFGDIRFAGSQIEEARLRRMLPFTKGDPYLAGQLAEYNQRLGQTNWFRGIAVRPRIGDERNVTRGGQWWQEATGRTPPLSSGAGLAAVRRLHGLQSTDVPVDVDLVPADRHKFETGIGYATDVGPRVQFSWEMPWLNDRGHSLSNSLYLSGPEQRFDGEYVMPLANPLRDSYRLSYGLRSLDNEDTQSLESSVELARRWEFDNDWVQELYFRTTYEDFTQADQDEQVLLLYPGISWTRTRTRQPNFPRWGDRQRLALEVSDPAWGSDARFLRARFDSQWIRTLGSDNRFVGRIGGGATATDTFDKIPPSLRFFAGGDQSVRGYSYESLSPENDDGELLGGQHMLTASAEYQRRVTGNWWGATFVDTGNAFNAWWPEELKTGAGVGVRWISPVGPVRFDIAHPFDNEEDAWRLHFAIGPEEGHHHHHH", "soluble on expression in E. coli": "not soluble"}
{"sequence": "MSLEDRIDQVEQAITKSRRYQTVAPATVRRLARAALVAARGDVPDAVKRTKRGLHEIYGAFLPPSPPNYAALLRQLDSAVDAGDDEAVRAALRRAMSVHVSTRERLPHLAEFYQEIFRHVPQPNTLRDLACGLNPLAAPWMGLSDQTVYVASDIDARLIGFVDAALTRLGVAHRTSVVDLLEDRLDEPTDVTLLLKTLPCLETQRRGSGWEVIDIVNSPIIVVTFPTKSLGQRSKGMFQNYSQSFESQARERSCRIQRLEIGNELIYVIQKEGHHHHHH", "soluble on expression in E. coli": "soluble"}
{"sequence": "MSLEDSTATFETRNMYFNRDFRDGTSAQQSKRDEWAQGFILNFESGYTDGTVGFGLDALGMLGIKLDSSPDRTDSGLLPTHDDGKAADEYSKLGLTGKVKISQTELKIGTLIPELPTLQPNDGRILPQTFEGGLLTSKEIKGLTFTGGRIDKAKDRNDTNWEDLALNNKNGRFGGTFSADNLALGGLDYQFTDRITGSYHFAQLDDIYRQHFIGMVATQPWGPGTLGADLRLAMSDDAGAAKAGNIDNTTVNGMLSYALGGHKVSAAWQQLSGESAFPYVDGADPYLVNFVQINDFAGADERSWQARYDYNFAALGVPGLTFMTRYISGDNVSRAAGGEGKEWERNTELKYVVQSGPLKNVAVRLRNATFRSNFARDADEVRLLVSYSVALWEGHHHHHH", "soluble on expression in E. coli": "soluble"}
{"sequence": "MSLEDYILKVEELNYNYSDGTHALKGINMNIKRGEVTAILGGNGVGKSTLFQNFNGILKPSSGRILFDNKPIDYSRKGIMKLRESIGIVFQDPDNQLFSASVYQDVSFGAVNMKLPEDEIRKRVDNALKRTGIEHLKDKPTHCLSFGQKKRVAIAGVLVMEPKVLILDEPTAGLDPMGVSEIMKLLVEMQKELGITIIIATHDIDIVPLYCDNVFVMKEGRVILQGNPKEVFAEKEVIRKVNLRLPRIGHLMEILKEKDGFVFDELDLTIGQARKTINSWKNKIFNEGHHHHHH", "soluble on expression in E. coli": "soluble"}
{"sequence": "MSLEELPRFFTQNGRHALLVDGAPYTILAAQLHNSSAWPAVLPPALDQVVALHANTVEAPVYWEQFEPAPGRFDTTNVDALIAGARKRGLRVALLWFGSWKNGQMHYVPEWIKRDEATYPRMRDANGEPVDVLSPHVAANVQADARAFTALMQHLRKVDGDRHTVIVVQVENEPGAIGTVRDHGPAGEAAFAQPVPAGIAAALGKPAGSWQQLFGAEAAEAFNAHATAAYIEQVAAAGKRVYPLPLYVNTWLRYKGKRYPGMDYPSGGATVNVFALWRAATPSIDFIGTDIYTSDYGEYTKVIGQYAREGHHHHHH", "soluble on expression in E. coli": "soluble"}
{"sequence": "MSLEEYPQMIVFEDVPYGFWAYDAIMDLAYHKIILGYGNGKYGVGDLTTREQVAGIIYRTLEMKEEGSVANPYKDISDSTTTFKKEILALTKRGVFTGDGQGNFRPKAPVSRAEMAVILKRAFTFETKQKHTFKDIPKGHWAEDAISALQSNNVVRGTGNGMYELNRPVPREQYAQFINNAIINYHLKEDWREGHHHHHH", "soluble on expression in E. coli": "not soluble"}
{"sequence": "MSLEISFTRVALLAAALFFVGCDQKPQPAKTHATEVTVLEGKTMGTFWRASIPGIDAKRSAELKEKIQTQLDADDQLLSTYKKDSALMRFNDSQSLSPWPVSEAMADIVTTSLRIGAKTDGAMDITVGPLVNLWGFGPEQQPVQIPSQEQIDAMKAKTGLQHLTVINQSHQQYLQKDLPDLYVDLSTVGEGYAADHLARLMEQEGISRYLVSVGGALNSRGMNGEGLPWRVAIQKPTDKENAVQAVVDINGHGISTSGSYRNYYELDGKRLSHVIDPQTGRPIEHNLVSVTVIAPTALEADAWDTGLMVLGPEKAKEVVRREGLAVYMITKEGDSFKTWMSPQFKSFLVSEKEGGSHHHHHH", "soluble on expression in E. coli": "soluble"}
{"sequence": "MSLEKKTANDVVTLARAQDRLTTLEYIEAIFEDFLEFHGDRYFADDLAVVGGVATLQGKPVTVVGIQKGRNLPENIERNFGSPNPEGYRKALRLMKQAEKFNRPVITFVNTAGAYCGIGAEERGEGEAIAQNLLEMSDLKVPIISVIIGEGGSGGALALAVADEVWMLEHTIYAVLSPEGFASILWKDGSRAKEAAELMKITATELKELAIVDKVIPEVMNGQPLEQAKINRMLQKAFISKLTELAKLDTETLLEKRYQRFRKYEGHHHHHH", "soluble on expression in E. coli": "soluble"}
{"sequence": "MSLEKNALYFVPLGGAGEIGMNLNLYAHQGKWLMVDLGVTFGNETTPGVDIILPDPSFIEERKGDLVGLVLTHAHEDHVGAVAYLWPYLECPVYATPFTAEFLRHKLREEGIEPDVKLIEIPLGGRFTVGPFDIEMITTTHSIPEPNHLAIRTTAGTVLHTADWKFDPEPLVGPPADEAALRRLGDEGVLAMVGDSTNIFTEGHSASEGDVRRSMIDLFARFQGRIAVGCFASNIARMETIALAAKANGREVALVGRSLWRMMETARTCGYLKGCPAFLGDEEAAKLPRDKVVYICTGSQGEPRAALKRIASGSHPYVSLSAGDVVIFSSRVIPGNERSILQLQNQLVEMGVKLITSRDAMVHVSGHPGAEEVRSLYGMVRPSIALPVHGEFLHLDHHADVARDLGVAHVVRITNGAVVRLDGAEPTVVGKVPFGRLALDGDRLLQIDCEIIRDRKRMGYNGSVAVSLAIDDKGKLLGTPKISARGLLDPEDDADEVADLTNRVRGAVNAVRPADRKDDAAVAEAVRLAVRRVFRQGQNRRPVTDIHVLRVEGHHHHHH", "soluble on expression in E. coli": "soluble"}
{"sequence": "MSLEKVKVAVIGAGNRGMYAYAPYIYENSDVCEIVAVAEPKKGRRELFTKKYNLDSKNVFETLEDFFKHDKMADAVIIATNDDRHYDVAKLALEKGYHVLLEKPMSNSLDGLVHIDDLCDKYKDKIFMICHVLRYSPFYNKLKEIVESKKLGELVSIQYNENIGYWHFAHSFTRGNWRNSNETSPLILAKSCHDMDILLYLVGSRCKKISAFGSLKHLNNQNASGEMAQNCLQCLVEKKCPYSAKRIYLEKDRSINRAVHINPTEENLLNILKTSPYGRCVYRCDNNVVDNMVNILQFENGVTATFNLCAFTKENGRTIKLMFSHGEVGGDLNKNEIRIKEFGKNEEIVMNPSNQQNMVEEYDRNLIAEFIKLVSNKELEKGRVAAKEAIQSHVMAFAAEYSRVSDEVVYIEEFFDSAKQMTKEIEETEGHHHHHH", "soluble on expression in E. coli": "soluble"}
{"sequence": "MSLELKITDFKVFVAQANFEWAFVRIYSKDLYGTGEAGPAPGLKGMESEFIQLLIGEDAFKVNRIAEKLRYATLYSGTTVYHLISAINIALYDLIGKYLNVPIYKLLGGDKTEIPVYVDAHGGKGLEAINALHLPVNLPWIKEAEVETNRLITTNNPVHGRLSMEKWNEDYSPEAYAKRALKMKNEGYKAMKFDLDVPTPYIDLRRVRNGDLSLKDIDYMVDIVKAVRESVGDEVEIMFDLHWRYNLNTAIRICKALEPYRLRWLEDPMPAIMAVSNYDELKLLTSQCSVPIETGENLYTVYQFKDLLNTGVRVWAPDIVKAGGITEGRRIAELAAMYDIEYSPHNIASPIGTMAHAHVGSIANTFGFVEFHGHDVPFWNEIVKPKRKIIEDGVIKLTDDPGLGIDLDDEVMRKYWPTYELEGHHHHHH", "soluble on expression in E. coli": "not soluble"}
{"sequence": "MSLELSPTYQTERFTKFSDTLKEFKIEQNNEQNPIDPFNIIREFRSAAGQLALDLANSGDESNVISSKDWELEARFWHLVELLLVFRNADLDLDEMELHPYNSRGLFEKKLMQDNKQLYQIWIVMVWLKENTYVMERPKNVPTSKWLNSITSGGLKSCDLDFPLRENTNVLDVKDKEEDHIFFKYIYELILAGAIDEALEEAKLSDNISICMILCGIQEYLNPVIDTQIANEFNTQQGIKKHSLWRRTVYSLSQQAGLDPYERAIYSYLSGAIPNQEVLQYSDWESDLHIHLNQILQTEIENYLLENNQVGTDELILPLPSHALTVQEVLNRVASRHPSESEHPIRVLMASVILDSLPSVIHSSVEMLLDVVKGTEASNDEGHHHHHH", "soluble on expression in E. coli": "not soluble"}
{"sequence": "MSLEPASAPKVERLEVSAYTVPTETPESDGTIAWSETTLVMVRMAACGAEGLGYTFADVATAALIDAHLKDAVVGHNPLNIPELWSTMVRKVRNLGRPGVCSMAISAVDNALWDLKARLLHLSVADLLGRAHDSIGAYGSGGFTSYSDEELRQQLTGWIGQGLTQVKMKIGSDPASDLARVRSARGAIGPDAELFVDANGAYDRKQALAKAAAFADLGVSWFEEPVSSDDLAGLRLIRERAPAGMRIAAGEYGYDSFYFRRMLEAEAVDVLQGDATRCAGITGFLAAGNLSTSFSTPFSAHTAPSLHAHAACALTSAINVEYFFDHYRIEQMFFDGALVPSNGVLRPDSTRPGFGLECKLSDMEKYRVYGNVTTEGHHHHHH", "soluble on expression in E. coli": "not soluble"}
